Source: patent US20050282190, “Modular design and construction of nucleic acid molecules, aptamer-derived nucleic acid constructs, RNA scaffolds, their expression, and methods of use” (published 2005)

Legend:
Streptavidin [1] = target: T1, Streptavidin (UniProt P22629 P22629:25-183); assay: original aptamer used as reference in deletion analysis; conditions: tags: ImmunoPure streptavidin, Pierce; HRP or Texas Red conjugates in immunoassays; chain copies: 4
[2] = target: T2, TBP (TATA-binding protein) (UniProt P13393 P13393:1-240); assay: reduced form fully retained binding; used to mask DNA-binding surface of TBP
T2 sequence: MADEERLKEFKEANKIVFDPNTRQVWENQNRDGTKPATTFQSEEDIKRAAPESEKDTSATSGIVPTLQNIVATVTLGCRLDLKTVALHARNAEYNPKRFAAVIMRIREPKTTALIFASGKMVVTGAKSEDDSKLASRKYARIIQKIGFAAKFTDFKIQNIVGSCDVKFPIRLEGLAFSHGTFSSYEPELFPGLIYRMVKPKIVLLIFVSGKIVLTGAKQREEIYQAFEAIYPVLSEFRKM

Streptavidin [3] = target: T1, Streptavidin; assay: EMSA; reduced S1 retains full activity; conditions: tags: ImmunoPure streptavidin, Pierce; HRP or Texas Red conjugates in immunoassays; chain copies: 4
Method: All binding assays were performed in 20 μl volume. The binding buffer contains 50 mM Tris-Cl (pH 7.4), 100 mM NaCl, 15 mM MgCl₂, 10% glycerol, and 1 mM DTT. A typical binding assay using labeled RNA contains about 20 fmole of ³²P-labeled RNA probe and different amounts (1-10 pmole, indicated by L and H in FIG. 5B) of protein or non-labled RNA. The reactions were allowed to equilibrate for 15-20 minutes at ambient temperature before being subjected to EMSA.
For BBS-B52 interaction, EMS assay was performed at 4° C. The binding reaction mixtures were set at 4° C. for 5-10 minutes before being loaded onto a 2.5% agarose gel in ¼ TBE buffer. For the streptavidin aptamers and the TAR aptamers, EMSA were performed at ambient temperature with 6% or 12% native polyacrylamide gel run in TG buffer (25 mM Tris base, 200 mM glycine, and 5 mM MgCl₂).

[4] = target: T2, TBP (TATA-binding protein); assay: filter; conditions: three-way junction with asymmetric internal loop and apical loop
[5] = target: T3, B52 (SR protein), full-length (UniProt P26686 P26686:2-350); assay: Western blot with B-R then T-S then HRP-streptavidin; conditions: tags: baculovirus expressed; two fused three-way junctions, two BBS and two R-06 modules
T3 sequence (P26686 other isoform, or with tags, fused parts or gaps): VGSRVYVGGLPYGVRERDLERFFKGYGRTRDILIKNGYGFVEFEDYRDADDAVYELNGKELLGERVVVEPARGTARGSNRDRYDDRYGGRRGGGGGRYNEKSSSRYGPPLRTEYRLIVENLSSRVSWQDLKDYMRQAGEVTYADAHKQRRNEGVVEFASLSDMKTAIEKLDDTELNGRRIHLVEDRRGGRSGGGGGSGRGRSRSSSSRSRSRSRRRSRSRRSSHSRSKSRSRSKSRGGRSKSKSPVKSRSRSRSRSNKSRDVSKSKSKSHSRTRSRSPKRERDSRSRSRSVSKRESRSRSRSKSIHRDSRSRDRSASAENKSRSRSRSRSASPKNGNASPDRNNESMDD
Method: (§1) Western blot analysis for antibodies was performed according to a standard protocol (Harlow et al., Using Antibodies: A Laboratory Manual. Cold Spring Harbor, Cold Spring Harbor Laboratory Press (1999), which is hereby incorporated by reference in its entirety). For the aptabodies, proteins were separated on 8% SDS-PAGE and transferred to nitrocellulose membrane according to the aforementioned standard protocol. Subsequent steps were also identical except the following substitutions. The RNA aptabody B-S (FIG. 5A) (10 μg/ml) and horseradish peroxidase conjugated streptavidin (1 μg/ml) were used to replace the primary and secondary antibodies. […]
(§2) First, a Western blot analysis was conducted with the aptabodies and a monoclonal antibody against B52. The sample to be analyzed contained a full-length B52 produced from a baculovirus expression system, a His-tagged B52 deletion construct that contained the two RNA recognition motifs recognized by the aptamers and the monoclonal antibody By32 (Champlin et al., “Characterization of a Drosophila Protein Associated with Boundaries of Transcriptionally Active Chromatin,” Genes and Development 5:1611-1621 (1991), which is hereby incorporated by reference in its entirety), and a His-tagged Drosophila heat shock factor as control. […]

[6] = target: T4, B52 RRMs (two RNA recognition motifs) (UniProt P26686 P26686:4-188); assay: as above; conditions: tags: His; two fused three-way junctions, two BBS and two R-06 modules
T4 sequence (P26686 other isoform, or with tags, fused parts or gaps): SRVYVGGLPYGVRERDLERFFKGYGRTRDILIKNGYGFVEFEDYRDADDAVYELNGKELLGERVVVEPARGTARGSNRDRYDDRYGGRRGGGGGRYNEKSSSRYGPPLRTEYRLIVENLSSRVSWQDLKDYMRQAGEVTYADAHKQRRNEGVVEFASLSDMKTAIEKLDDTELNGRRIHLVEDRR
Method: as §1, §2

HSF (heat shock factor) = target: T5, HSF (heat shock factor) (UniProt P22813 P22813:1-691); assay: EMSA; affinity measured, value only in figure; conditions: tags: His; three-way junction
T5 sequence: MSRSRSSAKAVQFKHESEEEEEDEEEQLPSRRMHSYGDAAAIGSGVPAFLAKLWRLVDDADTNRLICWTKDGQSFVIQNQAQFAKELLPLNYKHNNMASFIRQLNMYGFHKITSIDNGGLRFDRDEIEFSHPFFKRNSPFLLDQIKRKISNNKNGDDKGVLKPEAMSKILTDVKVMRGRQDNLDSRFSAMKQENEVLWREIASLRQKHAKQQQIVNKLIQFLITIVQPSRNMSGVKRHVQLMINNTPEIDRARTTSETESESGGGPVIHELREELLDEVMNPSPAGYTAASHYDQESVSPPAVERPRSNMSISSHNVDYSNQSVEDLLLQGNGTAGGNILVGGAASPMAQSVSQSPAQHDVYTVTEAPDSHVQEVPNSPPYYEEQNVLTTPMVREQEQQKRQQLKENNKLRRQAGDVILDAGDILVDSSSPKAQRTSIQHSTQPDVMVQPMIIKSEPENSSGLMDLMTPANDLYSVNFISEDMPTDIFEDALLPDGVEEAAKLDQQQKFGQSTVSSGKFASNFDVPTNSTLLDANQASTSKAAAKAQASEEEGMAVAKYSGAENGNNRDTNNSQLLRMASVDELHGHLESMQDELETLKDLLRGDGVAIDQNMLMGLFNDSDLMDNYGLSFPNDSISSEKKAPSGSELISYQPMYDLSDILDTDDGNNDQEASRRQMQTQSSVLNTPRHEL

[7] = target: T2, TBP (TATA-binding protein); assay: filter; AptTBP-101 Kd stated to be similar to that of AptTBP-12 complex; binds DNA-binding surface and competes with TATA-DNA (p252)
[8] = target: T3, B52 (SR protein), full-length; assay: Western blot with HRP-streptavidin; 15 mM MgCl2; conditions: tags: baculovirus expressed; two fused three-way junctions, two BBS and two S1 aptamers
Method: as §1, §2

[9] = target: T4, B52 RRMs (two RNA recognition motifs); assay: Western blot and dot blot; as low as 1 ng protein detected; conditions: tags: His; two fused three-way junctions, two BBS and two S1 aptamers
Method: as §1, §2

Streptavidin [10] = target: T1, Streptavidin; assay: streptavidin conjugates as secondary reagent in Western, dot blot and immunofluorescence; conditions: tags: ImmunoPure streptavidin, Pierce; HRP or Texas Red conjugates in immunoassays; chain copies: 4; two fused three-way junctions, two BBS and two S1 aptamers
Streptavidin [11] = target: T1, Streptavidin; assay: T-S secondary aptabody detected by HRP-streptavidin; conditions: tags: ImmunoPure streptavidin, Pierce; HRP or Texas Red conjugates in immunoassays; chain copies: 4; two fused three-way junctions, two TAR-Mal and two S1 modules
Method: as §1, §2

T1 sequence (P22629 25-183, one chain of several): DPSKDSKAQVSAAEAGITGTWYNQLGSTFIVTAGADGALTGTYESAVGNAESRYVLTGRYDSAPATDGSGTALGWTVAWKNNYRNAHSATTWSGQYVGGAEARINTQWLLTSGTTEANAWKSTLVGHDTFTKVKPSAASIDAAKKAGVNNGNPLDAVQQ

B1: S1 (ssRNA)
RNA: GGGAGUCGACCGACCAGAAUCAUGCAAGUGCGUAAGAUAGUCGCGGGCCGGGGGCGUAUUAUGUGCGUCUACAUCUAGACUCAU
- binding result (Streptavidin [1]): binds

Binder: GGCGCCGUGCCCGGUUUGGAUAGGCACAUAAGACGCC (ssRNA) [m12 (mini AptTBP-12)]
- binding result [2]: binds

Binder: GGGACCGACCAGAAUCAUGCAAGUGCGUAAGAUAGUCGCGGGCCGGG (ssRNA) [S1 con]
- binding result (Streptavidin [3]): binds

B2: AptTBP-101 (ssRNA)
RNA: GGGAGAAUUCAACUGCCAUCUAGGCAGCCAAGGUAAACAAUUCAGUUAGUGGAAUGAAACUGCCCAACACCAGAAGUACUACAAGCUUCUGGACUCGGU
- Kd [4]: 2 nM

B3: aptabody B-R (ssRNA)
RNA: GGGAUCGCCGCGGCUGGUCAACCAGGCGACCGCCGCGGCCACAGCGGUGGGCUGGUCAACCAGGCGACCGCCCACCAGCGUUCCCGGAUCCGUGACGUCAACACGGUCCCGGACGUGUUGACGUCCAUACUCCUCAACACGGUCCCGGACGUGUUGAGGAGGCGGAUUC
- binding result [5]: binds
- binding result [6]: binds

B4: RA1-HSF (ssRNA)
RNA: GGGAGAAUUCAACUGCCAUCUAGGCAUCGCGAUACAAAAUUAAGUUGAACGCGAGUUCUCCAUCUAGUACUACAAGCUUCUGGACUCGGU
- binding result (HSF (heat shock factor)): binds

B5: AptTBP-12 (ssRNA)
RNA: GGGAGAAUUCAACUGCCAUCUAGGCGCCGUGCCCGGUUUGGAUAGGCACAUAAGACGCCGACAAAGAAACCAACCAGUACUACAAGCUUCUGGACUCGGU
- Kd [7]: ~2 nM

B6: aptabody B-S (ssRNA)
RNA: GGGAUCGCCGCGGCUGGUCAACCAGGCGACCGCCGCGGCCACAGCGGUGGGCUGGUCAACCAGGCGACCGCCCACCAGCGUUCCCGGAUCCGUGACCGACCAGAAUCAUGCAAGUGCGUAAGAUAGUCGCGGGUCGGGUCAUACUCCCGGCCAGAAUCAUGCAAGUGCGUAAGAUAGUCGCGGGCCGGGAGGCGGAUUC
- binding result [8]: binds
- binding result [9]: binds
- binding result (Streptavidin [10]): binds

B7: aptabody T-S (ssRNA)
RNA: GGGAUCGCCGCCGAGCCCGGGAGCUCGGCGGCCACAGCGGUGGGAGCCCGGGAGCUCCCACCAGCGUUCCCGGAUCCGUGACCGACCAGAAUCAUGCAAGUGCGUAAGAUAGUCGCGGGUCGGGUCAUACUCCCGGCCAGAAUCAUGCAAGUGCGUAAGAUAGUCGCGGGCCGGGAGGCGGAUUC
- binding result (Streptavidin [11]): binds
